{"source": "patent US20120088715A1", "about": "(UNIVERSITE PARIS SUD XI, published 2012)", "binders": {"B1": {"name": "AT-N135Q-Pro394 (other)", "chain": "HGSPVDICTAKPRDIPMNPMCIYRSPEKKATEDEGSEQKIPEATNRRVWELSKANSRFATTFYQHLADSKNDNDNIFLSPLSISTAFAMTKLGACNDTLQQLMEVFKFDTISEKTSDQIHFFFAKLNCRLYRKAQKSSKLVSANRLFGDKSLTFNETYQDISELVYGAKLQPLDFKENAEQSRAAINKWVSNKTEGRITDVIPSEAINELTVLVLVNTIYFKGLWKSKFSPENTRKELFYKADGESCSASMMYQEGKFRYRRVAEGTQVLELPFKGDDITMVLILPKPEKSLAKVEKELTPEVLQEWLDELEEMMLVVHMPRFRIEDGFSLKEQLQDMGLVDLFSPEKSKLPGIVAEGRDDLYVSDAFHKAFLEVNEEGSEAAASTAVVIAGRPSLNPNRVTFKANRPFLVFIREVPLNTIIFMGRVANPCVK"}}, "biological_target": "T1, factor Xa (UniProt P00742 41-179; P00742 235-488, limits assumed)", "T1 construct": "Bought enzyme; The active enzyme has a light and a heavy chain cut from that precursor; also called FXa", "T1 sequence (P00742 41-179 limits assumed, form in doubt, chain 1 of 2)": "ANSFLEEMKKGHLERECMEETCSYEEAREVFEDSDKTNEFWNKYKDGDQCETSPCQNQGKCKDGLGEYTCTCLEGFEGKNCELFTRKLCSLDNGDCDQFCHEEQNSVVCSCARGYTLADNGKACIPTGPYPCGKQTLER", "T1 sequence (P00742 235-488 limits assumed, form in doubt, chain 2 of 2)": "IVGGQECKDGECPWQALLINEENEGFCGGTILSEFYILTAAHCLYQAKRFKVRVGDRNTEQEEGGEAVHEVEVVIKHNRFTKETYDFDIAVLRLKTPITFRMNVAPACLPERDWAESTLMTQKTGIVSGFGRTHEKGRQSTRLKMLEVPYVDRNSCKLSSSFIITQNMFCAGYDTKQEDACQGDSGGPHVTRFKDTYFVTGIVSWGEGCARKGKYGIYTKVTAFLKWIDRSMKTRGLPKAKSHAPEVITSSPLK", "assay": "discontinuous chromogenic substrate assay of FXa inhibition with pentasaccharide, against plasma AT", "protocol": "The pentasaccharide is added in excess in the reaction media so that every tested antithrombin is bound to the pentasaccharide. In the absence of pentasaccharide, polybrene (100 μg/ml final) is added in order to neutralize any sulfated glycosaminoglycan that may be present in the reaction media. […] The analysis of the data is performed using the GraphPad Prism version 3 software. Absorbance recording is continuous or discontinuous according to the expected inhibition rate constant (kon).\nWhen the expected kon is lower than 10⁴ M⁻¹.s⁻¹ the discontinuous method is used. […] At the end of this incubation period, 190 μl of kinetic buffer containing 200 μM substrate is added and absorbance at 405 nm is recorded."}
{"binder": "B1", "values": [{"measurement": "fold lower kon than plasma AT", "value": "≥ 7600", "unit": "fold"}]}
